Experimental data from article PMC11840923, “Kinetic and Thermodynamic Characterization of Human 4-Oxo-L-proline Reductase Catalysis” (Biochemistry, 2025).

Substrate: O=C1CN[C@H](C(=O)O)C1
Assay: purified protein
Assay type: biochemical, Homo sapiens
Conditions: NADH binds the HsBDH2:NADH complex; receives the pro-S hydrogen from NADH

B1: 4-oxo-L-proline reductase (HsBDH2) (Homo sapiens) (protein)
chain: MGRLDGKVIILTAAAQGIGQAAALAFAREGAKVIATDINESKLQELEKYPGIQTRVLDVTKKKQIDQFANEVERLDVLFNVAGFVHHGTVLDCEEKDWDFSMNLNVRSMYLMIKAFLPKMLAQKSGNIINMSSVASSVKGVVNRCVYSTTKAAVIGLTKSVAADFIQQGIRCNCVCPGTVDTPSLQERIQARGNPEEARNDFLKRQKTGRFATAEEIAMLCVYLASDESAYVTGNPVIIDGGWSL
B1 was tested. Which Km did it give?
The Km was 176 µM.
